Laboratory results reported in patent US20120264212.

Test system: T1, Dab2 N-terminal phosphotyrosine binding (N-PTB) domain, residues 1-241 of human Disabled-2, wild type
T1 sequence: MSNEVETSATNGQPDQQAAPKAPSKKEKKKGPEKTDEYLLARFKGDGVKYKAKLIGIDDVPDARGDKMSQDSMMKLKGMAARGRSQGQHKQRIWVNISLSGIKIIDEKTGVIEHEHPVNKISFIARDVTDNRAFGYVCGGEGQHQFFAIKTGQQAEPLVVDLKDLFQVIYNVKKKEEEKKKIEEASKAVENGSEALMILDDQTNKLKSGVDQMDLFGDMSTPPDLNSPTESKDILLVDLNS

How did the “thrombin limited proteolysis (SDS-PAGE)” value turn out when thrombin was run?
The value was “thrombin cleaved the N-PTB domain leaving a ˜25 kDa protease-resistant product”.
